For assay [1], the target named is LAMP1::histag (human) (UniProt P11279). Briefly: competition ELISA; H4A3 0.06 mg/L read with anti-mouse IgG; competitor chMAb2 15 mg/L.
Assay [2] shares this target. Briefly: SPR (BIAcore 2000), mAb captured by anti-Fc, LAMP1 injected 1 to 256 nM. In general terms: Surface plasmon resonance follows binding to a sensor surface in real time, without labels.
The target is the same in assay [3]. Briefly: competition ELISA; H4A3 0.06 mg/L read with anti-mouse IgG; competitor chMAb3 15 mg/L. (In general: ELISA stands for enzyme-linked immunosorbent assay.)
Assay [4] has the same target. Kind of assay: SPR (BIAcore 2000).
Assay [5] has the same target. Briefly: competition ELISA; H4A3 0.06 mg/L read with anti-mouse IgG; competitor chMAb1 15 mg/L.

LAMP1::histag (human), sequence (P11279 other isoform, or with tags, fused parts or gaps): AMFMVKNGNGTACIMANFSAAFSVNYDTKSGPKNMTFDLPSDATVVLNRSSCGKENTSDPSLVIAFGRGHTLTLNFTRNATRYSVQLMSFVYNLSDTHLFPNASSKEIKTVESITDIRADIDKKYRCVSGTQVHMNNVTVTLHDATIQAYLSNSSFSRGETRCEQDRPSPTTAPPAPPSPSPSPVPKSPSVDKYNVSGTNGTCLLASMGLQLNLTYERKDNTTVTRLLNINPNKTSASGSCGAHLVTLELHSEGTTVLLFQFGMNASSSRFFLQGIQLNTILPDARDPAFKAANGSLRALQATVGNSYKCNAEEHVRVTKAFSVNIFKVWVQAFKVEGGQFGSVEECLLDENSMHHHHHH

Take H4A3 (BioLegend 328602) (antibody): the percentage of signal compared to mAb control alone worked out at 57% in assay [1], 11% in assay [3] and 98% in assay [5]. Also, the Kd (usually the free concentration of one partner at which half of the binding sites on the other are occupied at equilibrium, for simple one-to-one binding) in assay [2] turned out to be 0.105 µM; in assay [4], 0.1 µM. Besides, the koff (commonly the first-order rate constant of dissociation) in assay [2] is 0.00609 s⁻¹. For the same substance, the kon (in general, the second-order rate constant of association) in assay [2] came out at 58000 M⁻¹ s⁻¹.
